Results published in patent US20220396620A1 (Takeda / Millennium, published 2022).
Substitutions are numbered along the chain they refer to.

How the values were obtained:
[1] = target: T1, human cannabinoid receptor type 1 (CB1) (human, UniProt P21554 1-472); test: cell-based or functional assay
[2] = target: T1, human cannabinoid receptor type 1 (CB1); test: FACS, titration on CB1 over-expressing CHO cells
Experimental: (§1) Antibody binding was tested in a fluorescence activated cell sorting (FACS)-based assay for the ability of the mouse anti-CB1 antibodies to bind parental CHO cells, human CB-1 overexpressing CHO cells and mouse CB-1 overexpressing CHO cells to obtain binding curves and EC50 values. The three cell lines were harvested, washed and dispensed at 1×10⁵ cells per well of a v-bottomed 96-well polycarbonate FACS plates (Corning, Corning, N.Y., Cat. No. 3357) in 50 μl of FACS buffer (1×PBS/2 mM EDTA and 1% FBS (ThermoFisher Scientific, Anaheim, Calif.; Cat. No. 10438-026). Serial dilutions of the antibodies were prepared at 2× concentrations starting at 200 nM and serially diluted 3-fold. The titrated antibodies were added to the plates containing the three different cell lines (parental, human and mouse CB-1 CHO cells) and incubated at 4° C. for 1 hour. The plates were washed 3× with FACS buffer. […] None of the eight functional antibodies tested were mouse cross reactive (FIG. 3).

[3] = target: T2, mouse CB-1 (mouse, UniProt P47746 1-473); test: flow cytometry on CHO-Mouse CB1 cells, 3-fold antibody titration from 200 nM
T2 construct: whole, on cells; also called moCB1; moCB1-CHO cells
Experimental: as §1

[4] = target: T1, human cannabinoid receptor type 1 (CB1); test: flow cytometry, single point at 30 ug/mL antibody on CHO-huCB-1 cells
[5] = target: T1, human cannabinoid receptor type 1 (CB1); test: FACS on CHO-huCB-1 cells, single concentration 30 ug/mL

T1 sequence (P21554 whole entry): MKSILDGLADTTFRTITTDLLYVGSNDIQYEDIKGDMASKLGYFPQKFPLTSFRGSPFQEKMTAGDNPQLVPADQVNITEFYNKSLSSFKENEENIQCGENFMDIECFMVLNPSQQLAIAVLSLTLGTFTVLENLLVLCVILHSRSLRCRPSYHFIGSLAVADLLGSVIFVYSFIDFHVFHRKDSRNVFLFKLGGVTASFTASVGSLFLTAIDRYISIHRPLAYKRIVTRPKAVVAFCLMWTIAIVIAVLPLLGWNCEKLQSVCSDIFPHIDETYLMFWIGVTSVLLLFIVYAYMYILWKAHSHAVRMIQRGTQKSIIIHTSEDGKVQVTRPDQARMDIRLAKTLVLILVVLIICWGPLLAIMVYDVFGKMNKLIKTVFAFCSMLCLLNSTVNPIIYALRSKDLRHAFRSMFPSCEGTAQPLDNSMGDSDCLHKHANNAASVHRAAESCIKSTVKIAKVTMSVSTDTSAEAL
T2 sequence (P47746 whole entry): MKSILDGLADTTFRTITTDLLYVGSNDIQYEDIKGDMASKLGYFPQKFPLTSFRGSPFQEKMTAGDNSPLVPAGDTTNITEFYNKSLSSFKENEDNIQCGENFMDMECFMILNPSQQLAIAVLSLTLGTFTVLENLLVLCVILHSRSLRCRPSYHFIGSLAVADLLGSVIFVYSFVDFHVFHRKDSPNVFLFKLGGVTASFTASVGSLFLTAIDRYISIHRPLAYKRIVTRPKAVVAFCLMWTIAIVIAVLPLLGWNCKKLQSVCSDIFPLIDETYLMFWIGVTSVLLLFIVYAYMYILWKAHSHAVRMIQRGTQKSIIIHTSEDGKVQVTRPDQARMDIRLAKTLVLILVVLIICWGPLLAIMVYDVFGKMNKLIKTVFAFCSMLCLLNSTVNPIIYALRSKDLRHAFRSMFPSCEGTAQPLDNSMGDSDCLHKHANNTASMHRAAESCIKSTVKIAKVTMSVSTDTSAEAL

B1: M7 mouse anti-huCB-1 antibody (antibody, V domains shown)
VH: EVQLQQPGAELVRPGASVKLSCKASSYTFTRYWMNWVKQRPEEGLEWIGMIDPYDSETHYNQKFKDKAILTVDKSSSTAYMQLSTLTSEDSAVYFCARSQPRYYAMDYWGQGTSVTVSS
VL: DIQMSQSPSSLSASLGERVSLTCRASQEISGFLSWLQLRPDGTIKRLIYAASSLDSGVPKRFRGSWSGSDYSLTISSLESEDFADYYCLQYSSYPYTFGGGTKLEIK
Mean P-ERK (% inhibition) [1]: 95 % inhibition
Mean cAMP (% Amgen) [1]: 61 % Amgen
P-ERK IC50 (nM) Data Set 1 [1]: 117 nM
P-ERK IC50 (nM) Data Set 2 [1]: 170 nM
cAMP EC50 (nM) Data Set 1 [1]: 78 nM
cAMP EC50 (nM) Data Set 2 [1]: 120 nM
cAMP EC50 (nM) Data Set 3 [1]: 120 nM
EC50 [2]: 13 nM
binding result [3]: no binding (tested: 200 nM)

B2: M8 mouse anti-huCB-1 antibody (antibody, V domains shown)
VH: QVQLQQPGAELVKPGASVKLSCKASGYTFTDYWMHWVKQRPGHGLEWIGEIYPSSGRANYNGNFKRKATLTVDKSSSTAYMQLSSLTSEDSAVYYCARSRGNYLPYWGHGTPVTVSA
VL: QIVLTQSPAIMSASLGERVTMTCTAGSTVSSSYLHWYQQRPGSSPKLWIYGTSNLASGVPARFSGSGSGTSYSLTISSMEAEDAATYYCHQYHRSPPTFGGGTKLEIK
Mean P-ERK (% inhibition) [1]: 64 % inhibition
Mean cAMP (% Amgen) [1]: 29 % Amgen
P-ERK IC50 (nM) Data Set 1 [1]: 36 nM
P-ERK IC50 (nM) Data Set 2 [1]: 47 nM
cAMP EC50 (nM) Data Set 1 [1]: 96 nM
cAMP EC50 (nM) Data Set 2 [1]: 190 nM
cAMP EC50 (nM) Data Set 3 [1]: 370 nM
EC50 [2]: 10.7 nM
binding result [3]: no binding (tested: 200 nM)

B3: M5-H1 humanized anti-CB1 antibody (antibody, human IgG1, kappa, L234A L235A, V domains shown)
VH: QVQLVQSGAEVVKPGASVKISCKASGYEFSYYWMNWVKQAPGQGHEWIGQIYPGDGDTNYNGKFKGKATLTADKSTSTAYMELSSLRSEDTAVYFCARGREAAWFAYWGQGTLVTVSS
VL: DIQLTQSPSSLSVSVGDRATITCRASQSVSSFRYSYLHWYQQKPGKAPKLLIKYASNLESGVPSRFSGSGSGTDFTLTISSVQPEDFATYFCQHSWEIPFTFGQGTKLEIKR
binding result [4]: binds

B4: M5-H2 humanized anti-CB1 antibody (antibody, human IgG1, kappa, L234A L235A, V domains shown)
VH: B3 VH with V12K, I20V, K38R, G62Q, K65Q, K67R, A68V, K74T
VL: B3 VL
binding result [4]: binds

B5: M7-H3 humanized anti-CB1 antibody (antibody, human IgG1, kappa, L234A L235A, V domains shown)
VH: QVQLVQSGAEVKKPGASVKVSCKASSYTFTRYWMNWVKQAPGQGLEWIGMIDPYDSETHYNQKFQGRATLTVDTSTSTVYMELSSLRSEDTAVYFCARSQPRYYAMDYWGQGTTVTVSS
VL: DIQMTQSPSSLSASLGDRVTLTCRASQEISGFLSWLQLKPGKTIKRLIYAASSLDSGVPSRFSGSWSGTDYTLTISSLQPEDFADYYCLQYSSYPYTFGGGTKLEIKR
binding result [4]: binds

B6: M7-H2 humanized anti-CB1 antibody (antibody, human IgG1, kappa, L234A L235A)
heavy: not shown
light: DIQMTQSPSSLSASVGDRVTLTCRASQEISGFLSWLQLKPGKAIKRLIYAASSLDSGVPSRFSGSWSGTDYTLTISSLQPEDFADYYCLQYSSYPYTFGGGTKVEIKRTVAAPSVFIFPPSDEQLKSGTASVVCLLNNFYPREAKVQWKVDNALQSGNSQESVTEQDSKDSTYSLSSTLTLSKADYEKHKVYACEVTHQGLSSPVTKSFNRGEC
binding result [4]: binds

B7: M7-H5 humanized anti-CB1 antibody (antibody, human IgG1, kappa, L234A L235A, V domains shown)
VH: B5 VH with K12V, V20L, Q65K, G66D, R67K, T69I, T74K, V79A, S85T, T114S
VL: B5 VL with K39R, G41D, K42G, S63R, P80S
binding result [5]: binds

B8: M7-H6 humanized anti-CB1 antibody (antibody, human IgG1, kappa, V domains shown)
VH: B5 VH with K38R, I48M, Q65K, G66D, A68V, L70M, V72R, F95Y, T114S
VL: DIQMTQSPSSLSASVGDRVTITCRASQEISGFLAWFQQKPGKAPKSLIYAASSLQSGVPSRFSGSGSGTDFTLTISSLQPEDFATYYCQQYSSYPYTFGGGTKLEIKR
binding result [5]: binds
